Measured values reported in the DeepSol protein solubility set.

assay: soluble on expression in E. coli; label from the status in PepcDB or PDB records

Row | Sequence | soluble on expression in E. coli
1 | MGSDKIHHHHHHMFKPMASVFTNHQIAGHYRAIERAQKCVVPFHFEIQGQEYPKPKPERNWLRRLSGTSSEKYAMVELTPTKVVLWSPEGRNLGEMPLSAVRRIQIGAIRCHVTEGLDPRHAFRATIFVLTDSGNYYFANSDMEVLPAICKFAHEHQVPVEDPLRLIPLLKVGWRVAAVTLHETYAQLVAHTGYPADKV | not soluble
2 | MSLADIPYGTDYPDAPWIDRDGHVLIDDGGKPTQVHRGQARIAYRLAERYQDKLLHVAGIGWHSWDGRRWAADDRGEAKRAVLAELRQALSDSLNDKELRADVRKCESASGVAGVLDLAAALVPFAATVADLDSDPHLLNVANGTLDLHTLKLRPHAPADRITKICRGAYQSDTESPLWQAFLTRVLPDEGVRGFVQRLAGVGLLGTVREHVLAILIGVGANGKSVFDKAIRYALGDYACTAEPDLFMHRENAHPTGEMDLRGVRWVAVSESEKDRRLAESTIKRLTGGDTIRARKMRQDFVEFTPSHTPLLITNHLPRVPGDDTAIWRRIRVVPFEVVIPADEQDRELDARLQLEADSILSWAVAGWSDYQRIGLSQPDAVLAATSNYREDSDTIKRFIDDECVTSSPVLKATTTHLFEAWQRWRVQEGVPEISRKAFGQSLDTHGYPVTDKARDGRWRAGIAVRGADDFDEGHHHHHH | soluble
3 | MGSDKIHHHHHHMPETAHGVPVSTVKPDGAAMALKSKLLLIILDGVPYRNWRRLMGNLEGWVQSGEARVWKMRSVLPSTSACCYASIHTGVSPQVHGILSNENRFRVGQPDIFSEVSKAGGKTGAVTHSYWSEFFRSYPFDLVEDMEYDEPGGPITHGRFHTMTGYNARNQMTPSDVDLFATLTMLTKRHGIDYGILHTCTLDSMGHRFGNDCHEMDHAVYAMDGMLAAFLPGWIAAGYEVMVTADHGQTDRGHHGGHDDEMQDFALYYFGQGQGPETDTLLDQLQLAPTVLSRLGVPVPATMKAKPFLS | not soluble
4 | MPRKQLKGETHDQKAQIASAFGEIEQSKIFLDKRSESAAVKMDIADLLKEIIQKQLRKDYDPEVESNIFINPERGDFEVYILKKIVKEVDLPTIEIGLDEVRQIDDSLELGDYYEEGPIKLDDYLTRKSIQIIKQSVQKKVRDLERLAVYEECLEKVGEVVAGEVYQVRPNEVIFTYNTSKDHRVELVLPKSEMMKKDNPRRTPRMKLYVKRIEREKVKVRNDDGTVEEREKPDGGMKVIVSRVDDRFLYKLFESEVPEILDGLIVIKGIARVPGERAKVAVESTSSRIDPVGATVGYRGKRIQSIVKELNNENIDVIYYTDEPQVFIARALQPAKIDPMTVHADMKTRKARVMLKPDQIKYAIGKNGNNIHLAEKLTGYEIDVYRDVIDKSLEDPNDIDIIEFREEFGDDMIYQLLDGGLDTAKKILKGGVEKIEEALLGTQKSEELFVFNKTRKPVKPKERRITDDEKRYWKKIAETIYRTVREQFNDEDLKALLDDSHERSLKGDGIDPEEIRDKETNLEHHHHHH | not soluble
5 | AHHHHHHGSDSIIVYVSIHHKNTEKVAKVIAEVLNARLVKPWEIKPEELLKYDLIGFGSGIYYWKHHRALFELINKLPKVEGKKAFIFSTAGLNIPFINHRKLRKVLREKGFEIVGEFSCRGWDTNGWLAEIGGLNKGHPNEKDLENARKFAENLKASI | soluble
6 | MDDNNSEFKHLFPIAVEVTEGKTYVWCGCGKSKTQPFCDKENCGDKAVSFIAELTEDVYFCNCKQTKNPPFCDGSHAKILLEVVKKKAKQMNRKGSLKLEHHHHHH | not soluble
7 | SADEEDSLSQFDISKEETDKLVSEVIRFILFKFHQNSGTPIKREDLTQIVTKNYRQRNLATHVINEAKKKLSNVFGYDLKELQRARSSSTGQSRLPQSQSSVDSKSYVLVSELPLEVFKKHVVDETTSPVTGFTFVVLAIVQLAGGKIPEGMLLLGLLRRSFLWFRCNVLCKVVEWKSKVHYRDLFKNLKL | soluble
8 | AINQANRSVCITTPYFVPSADLLATLKMTAQRGIKVDIIIPKKNDSLMVQWASRAFYGELLEAGVQIHEFDGGLLHTKSVVIDQQFCLVGTVNLDMRSLWLNFELTLAVDDLEFTQQMHWLQQQYIDQSHSVVYAEWEQRPWYNRFLERVFYLFNPLL | not soluble
9 | MVSCQGTRPCIVNLLTMPSEDKLGEEISTRVINEYSKLKSACRPIIRPSGIREWTILAGVAAINRDGGANKIEILSIATGVKALPDSELQRSEGKILHDCHAEILALRGANTVLLNRIQNYNPSSGDKFIQHNDEIPARFNLKENWELALYISRLPCGDASMSFLNDNCKNDDFIKIEDSDEFQYVDRSVKTILRGRLNFNRRNVVRTKPGRYDSNITLSKSCSDKLLMKQRSSVLNCLNYELFEKPVFLKYIVIPNLEDETKHHLEQSFHTRLPNLDNEIKFLNCLKPFYDDKLDEEDVPGLMCSVKLFMDDFSTEEAILNGVRNGFYTKSSKPLRKHCQSQVSRFAQWELFKKIRPEYEGISYLEFKSRQKKRSQLIIAIKNILSPDGWIPTRTDDVK | not soluble
10 | MKVIGINGSPRRAGNTSIMLKTIFEVLEDEGIETELIQVGGTNIKGCRACYACIKNKNSECSTKGDGFNEIFAKMVEADGMILGSPTYFADITPELKALIDRAGFVSRTNGQLFRHKVGASVVSLRRGGGIHAYDSINHLFQICQMFMVGSTYWNLGFGGRDGGEVVNDTEGMENMRDLGHSMAFLLKKLHNLEHHHHHH | not soluble
11 | MAHHHHHHMSEDESNSVSCSLSLESDGYSDEEYDTNLNKLIENESLNWIFVGGKGGVGKTTTSCSIAVQLSKRRESVLLLSTDPAHNTSDAFNQKFTNQPTLINSFDNLYCMEIDTNYSENTAFKLNKKEMFDNILPELLHSFPGIDEALCFAELMQSIKNMKYSVIVFDTAPTGHTLRLLAFPDLLKKALGYLINIREKLKGTLNVLKNFTNNEMEFDSLYEKINHLNAMSSSIQANFQNPMKTTFVCVCIPEFLSVYETERLIQELTKKNISCYNIVVNQVVFPLDSPNVNLENCKNLLSQIKNEQIQSYFNDLISKTEELEDVYISRRKLQSKYLTQIKNLYSNDFHIVCMPQLKNEIRGLNNISSFSEMLLQSKDIPIYKDNL | not soluble
12 | MSDKIIHLTDDSFDTDVLKADGAILVDFWAEWCGPIEESDDRRYDLVGPCKMIAPILDEIADEYQGKLTVAKLNIDQNPGTAPKYGIRGIPTLLLFKNGEVAATKVGALSKGQLKEFLDANLA | soluble
13 | MSLIIRLNFITKYKVDMKRSHLSLIACLLASTQAYALSTDREQPVYIDSDSQQLDMKSNRVTFLGDVKLKQGSININADKLIVIRNAENGKIEEIEGYGNVATFSQLTDEGKTLYGEAKELYYKVRDDELVMINKAMLSQDDSEIRGSKIRYKISLQKLIADSDGKGRVSTVLQPQAIQEEGHHHHHH | soluble
14 | MGSDKIHHHHHHMITIKEYVVPKSLDEAYELLISRKNNIILGGCGFLKLGSKNIGSAIDLKDLALDYINETDDSILIGADTSLRTLELNKVIKNYCNGVISNAVSNIVGVQFRSGARVGASVFAKYGFSDLIPSLLVVDAKVKLYKKGVMNLADFLENELEKDILIEVILPKKDAIGVFDSIRKCTGDFAVLNGAMLKEGSIYKIAIGARPRRAKIAYKASEILSLENDIEKAGEVSSEELSFGSNIRGSKEYRKDMAKALVVRMYNSIGGECDGK | not soluble
15 | AGHILLLEEEDEAATVVCEMLTAAGFKVIWLVDGSTALDQLDLLQPIVILMAWPPPDQSCLLLLQHLREHQADPHPPLVLFLGEPPVDPLLTAQASAILSKPLDPQLLLTTLQGLCPPN | soluble
16 | MSLKIGIVGPGAIGLLYTFYLQKSNQDVTLFTRTAKQAEELNETGVTCIRDGRCETVYPPVLPIESMVAQNLDYIFISVKQYHIDDVLPFVEGASSLIFLQNGMSHLQKMLKIGSENIAVGIVEHGAKKEGGHIVHHTGIGVTKFGVVCGQSIHFKKIFRYFPVTYFPVQIETDWEEIMHKKLVVNVCINPLTALLGVKNGELITNRFFYQMMEQVFQEVAFLIRGEKEMVWQMVRNVCEGTSRNTSSMLADVRANRQTEINAIVGYVLEEAKKQQLPVPTLQFLFDAIKGLETREGHHHHHH | not soluble
17 | MEDCRGDGSRREIERRRKYGRELQDLREGGEEFEYYFFVSNVFRTKLQKMPGADYSAVKGGGLKLKAGKKNLFKVGKEKKKKNKDDKEKIDPDTVENGGWRKIADEFDMKGGTNVAIEVASGAGSTRTYVAAMDNGKFTIGFPHPEGEGPNPEEIFALVKTPDDSKISLKTGFGRYVGVDSEYQLVAMAEAIGSREQFVLVFQEGKTAFQAVSSPLFLSTVPNKEGHIYVASRTATENEMVNIRTDAIQEGPVDWRSVEDRKNARECETAYVKMYQHSKVDLKNRHIAIDVKDKKGVKKAQADGSAHELLLDRRMKMKSDRYC | not soluble
18 | MRFAPFTRQRHHNREQIKQHPEWFPAPLKASDRRWQALAENNHFLSSDHLHNITEVAIHRLEQQLGKPYVWGGTRPDQGFDCSGLVFYAYNKILEAKLPRTANEMYHYRRATIVANNDLRRGDLLFFHIHSREIADHMGGYLGDGQFIESLRTGETIRVSRLAEPFWQDHFLGARRILTEEMIL | not soluble
19 | MIPLMHDFEGETVLVVGGGSVGARKARTFATEASVVVLSPEFGDRTFADAEKVRAAPTPEDATDWVERTDPALVVAATDDSDLNGAFSTAAAEHGALVNRTDDHGDQSFGNIVVPATVRDDPVTLAIATGGRAPALSKHLRERFEDEFGNAGLMADLVGDLREDLRDRGVPPAKRRDAVRFVVRSREVWKALDSGRSKGEQVARDVIGELPGDQT | not soluble
20 | MAHHHHHHMLANEGRNASANNTTQPSFLILSSKNRHCITHNLTQIQTRCRPHFTEKRLKRGSWLKREEVWIEVQLCYRLGRRFTPTLFSQCAYRPSIRLGPTGTTGLAVPLLKIIYRQNSTIQKHKKEDDEKRCIKKKTIYGT | not soluble
21 | MTTSPTENAHAVVLGGSVAGCLAAAVLARRYPRVTIVEKSDFHNETGARQSVPQEHHVHLLLQRGKDIMEAIFPGFLSELEQAGALVADLGHDVKWYQAGRWKNRYRCGIHAHYCSRRLIDTHLRRRVARLPQVTVLSRTQMEGLDFRRDGDRLAVGGVRLRNDDHAWTLDADALVDASGRGTRLPGWLETAGLGAVDKSMVKTDLGYASRIYRRRPEFANQWKVLLVLATPPHQRAMGVISPIEGDRWMVTTGGWFGHYPDRDPNAFLKALAALPMPDIHQVIRDAEPLSDVSVFRMPGSLRRHYDRLPRWPDGLLVVGDALASMNPLYSQGMTLCALEAECLDENLDALLAGGLRCQELQEKLCRALDPAWQMAVTEDLRFPETEGERGWRTRFLHWYGAGLTRLSAYHRGALEAQIGVSNLIVNPSRLYAPPIAARIVLGSLLPGEARTLEHHHHHH | not soluble
22 | MRHLRFENLTEEQLKRLAKILTENLKGGEVVILSGNLGAGKTTFVKGMIRAIGLDEKMVKSPTFTLMNVYPGLKTIYHLDLYRLQDTDFLSLDVEDILEDEDGIMVVEWGDLFDGFWPEDSIKVKIEIADESHRNVEILIPEEVNFLVEKIERYRKELQNT | soluble
23 | MGSDKIHHHHHHMFKDYQPKKGFDEYFSSDDFLPRSSLEPLLTSLGEMGLHQLNISHEIARKLLLRHGATFRLNDSGSKGSERILPFDPLPRVIGSLEWLGLERGLIQRLEAIDLFLADVYGKQQIINDGIIPRDFIESSDGWRPQMKGFVLPLGKWCHVSGLDLIRDGNGEWLVLEDNLRCPSGVAYFLENRLVMKRIFPSLFNGRVVRPIEDYPSYLLKSLQELAVWTDTPKVVLLTPGVFNSAYFEHSYLAQQMGIQLVEGSDLVCQNQNVYLKTTSGIKKVDVIYRRIDDDYLDPKFFRKDSMLGVPGLIDVLKKGRVAIANAPGTGLADDKLIYTFVPEMIRYYLKEEPIINNVKTYVCARSSDLSFVLENLGKLVVKSVSEAGGYGMLIGPHSSQIDIDKFSAKIKANPRNYIAQPTLDLSTVPSLSDGEVYPCHVDLRPYVLRGKNTWVSPGGLTRVALKRDSLIVNSSQGGGCKDTWVVG | not soluble
